Laboratory results taken from the Immune Epitope Database (IEDB).

Legend:
[1] = biological target: HLA-B*48:01; test: IEDB peptide-MHC binding, purified MHC/direct/fluorescence; filed as Kd, often an IC50 or EC50 that approximates it; ≥ and ≤ were set here for values at or beyond the usual limits of such assays
[2] = biological target: HLA-B*27:05; test: as above; conditions: source organism: West Nile virus
[3] = biological target: HLA-B*57:01; test: as above
[4] = biological target: HLA-B*15:17; test: as above
[5] = biological target: HLA-B*58:01; test: as above
[6] = biological target: HLA-A*02:02; test: IEDB peptide-MHC binding, purified MHC/competitive/radioactivity; filed as Kd, often an IC50 or EC50 that approximates it; ≥ and ≤ were set here for values at or beyond the usual limits of such assays; conditions: source organism: Vaccinia virus WR
[7] = biological target: HLA-A*02:06; test: as above; conditions: source organism: Vaccinia virus WR
[8] = biological target: HLA-A*02:03; test: as above; conditions: source organism: Vaccinia virus WR
[9] = biological target: HLA-B*15:03; test: as above
[10] = biological target: HLA-A*32:01; test: as above
[11] = biological target: HLA-A*30:01; test: as above
[12] = biological target: HLA-B*08:01; test: as above
[13] = biological target: HLA-B*15:01; test: as above
[14] = biological target: HLA-A*29:02; test: IEDB peptide-MHC binding, purified MHC/competitive/fluorescence; filed as Kd, often an IC50 or EC50 that approximates it; ≥ and ≤ were set here for values at or beyond the usual limits of such assays
[15] = biological target: HLA-A*31:01; test: as above
[16] = biological target: HLA-A*03:01; test: IEDB peptide-MHC binding, purified MHC/direct/fluorescence; filed as Kd, often an IC50 or EC50 that approximates it; ≥ and ≤ were set here for values at or beyond the usual limits of such assays
[17] = biological target: HLA-A*11:01; test: IEDB peptide-MHC binding, purified MHC/competitive/fluorescence; ≥ and ≤ were set here for values at or beyond the usual limits of such assays
[18] = biological target: HLA-A*11:01; test: IEDB peptide-MHC binding, purified MHC/direct/fluorescence; filed as Kd, often an IC50 or EC50 that approximates it; ≥ and ≤ were set here for values at or beyond the usual limits of such assays
[19] = biological target: HLA-A*02:01; test: IEDB peptide-MHC binding, purified MHC/competitive/fluorescence; filed as Kd, often an IC50 or EC50 that approximates it; ≥ and ≤ were set here for values at or beyond the usual limits of such assays; conditions: source organism: Toxoplasma gondii
[20] = biological target: HLA-A*02:12; test: as above; conditions: source organism: Toxoplasma gondii
[21] = biological target: HLA-A*69:01; test: IEDB peptide-MHC binding, purified MHC/direct/fluorescence; filed as Kd, often an IC50 or EC50 that approximates it; ≥ and ≤ were set here for values at or beyond the usual limits of such assays; conditions: source organism: Mycobacterium tuberculosis
[22] = biological target: HLA-A*02:03; test: as above; conditions: source organism: Mycobacterium tuberculosis str. Haarlem
[23] = biological target: HLA-B*27:03; test: IEDB peptide-MHC binding, purified MHC/competitive/fluorescence; filed as Kd, often an IC50 or EC50 that approximates it; ≥ and ≤ were set here for values at or beyond the usual limits of such assays; conditions: source organism: Kurkino virus
[24] = biological target: HLA-B*18:01; test: as above; conditions: source organism: Kurkino virus
[25] = biological target: HLA-A*26:01; test: as above; conditions: source organism: Kurkino virus
[26] = biological target: HLA-B*57:01; test: as above; conditions: source organism: Kurkino virus
[27] = biological target: HLA-B*15:17; test: as above; conditions: source organism: Kurkino virus
[28] = biological target: HLA-A*69:01; test: as above; conditions: source organism: Kurkino virus
[29] = biological target: HLA-B*39:01; test: as above; conditions: source organism: Kurkino virus
[30] = biological target: HLA-B*46:01; test: as above; conditions: source organism: Kurkino virus
[31] = biological target: HLA-B*51:01; test: as above; conditions: source organism: Kurkino virus
[32] = biological target: HLA-A*02:19; test: IEDB peptide-MHC binding, purified MHC/direct/fluorescence; filed as Kd, often an IC50 or EC50 that approximates it; ≥ and ≤ were set here for values at or beyond the usual limits of such assays; conditions: source organism: Convict Creek 107 virus
[33] = biological target: HLA-A*02:12; test: as above; conditions: source organism: Convict Creek 107 virus
[34] = biological target: HLA-B*45:06; test: IEDB peptide-MHC binding, purified MHC/competitive/fluorescence; filed as Kd, often an IC50 or EC50 that approximates it; ≥ and ≤ were set here for values at or beyond the usual limits of such assays; conditions: source organism: Mycobacterium tuberculosis variant bovis
[35] = biological target: HLA-B*83:01; test: as above; conditions: source organism: Mycobacterium tuberculosis variant bovis
[36] = biological target: HLA-B*15:42; test: as above; conditions: source organism: Mycobacterium tuberculosis variant bovis
[37] = biological target: HLA-B*40:01; test: IEDB peptide-MHC binding, purified MHC/direct/fluorescence; filed as Kd, often an IC50 or EC50 that approximates it; ≥ and ≤ were set here for values at or beyond the usual limits of such assays; conditions: source organism: Mycobacterium tuberculosis variant bovis
[38] = source organism: Camelpox virus CMS
[39] = source organism: Vaccinia virus WR
[40] = source organism: Vaccinia virus Copenhagen
[41] = source organism: Eastern equine encephalitis virus (STRAIN VA33[TEN BROECK])
[42] = source organism: Giardia lamblia ATCC 50803
[43] = source organism: Mycobacterium tuberculosis
[44] = source organism: Bacillus anthracis
[45] = source organism: Vibrio vulnificus YJ016

YRLRGEERK
Kd ([1]; source organism: West Nile virus): ≥ 20000 nM | Kd [2]: 883 nM

ISIPRSVGF
Kd [3, 38]: 85.9 nM | Kd [4, 38]: ≤ 1 nM | Kd [5, 38]: 30.3 nM

KMAVEVGSI
Kd [6]: 30.8 nM | Kd [7]: 119 nM | Kd [8]: 2.78 nM | Kd [9, 39]: 335 nM

SMVQILSSL
Kd [9, 40]: ≥ 77200 nM

METMFFIRF
Kd [9, 39]: 52.6 nM

TMKERRPIL
Kd [10, 39]: 2210 nM | Kd [11, 39]: 4730 nM | Kd [12, 39]: 1.83 nM | Kd [13, 39]: 808 nM | Kd [9, 39]: 397 nM

YYFDIYNKQ
Kd ([14]; source organism: Listeria monocytogenes EGD-e): 73 nM

RVIPPSLLR
Kd ([15]; source organism: Mycobacterium tuberculosis C): 13.5 nM | Kd ([16]; source organism: Mycobacterium leprae): 1750 nM

TITEKTFKD
IC50 [17, 40]: 36500 nM

YQSLSPPPF
Kd [10, 39]: 4740 nM | Kd [11, 39]: 0.503 nM | Kd [12, 39]: ≥ 33400 nM | Kd [13, 39]: 5050 nM | Kd [9, 39]: 0.0611 nM

ITYGSVSWR
Kd ([15]; source organism: Eastern equine encephalitis virus): 1.5 nM | Kd [18, 41]: 6.8 nM | Kd [16, 41]: 61.2 nM

SLNECIISF
Kd [9, 39]: 66.9 nM

FISRNKNIF
Kd [9, 39]: 4030 nM

VMADFDLEM
Kd ([14]; source organism: Vibrio cholerae NCTC 8457): ≤ 0.1 nM

LLKDRNELF
Kd [10, 39]: 3070 nM | Kd [11, 39]: 108 nM | Kd [12, 39]: 40.6 nM | Kd [13, 39]: 1.82 nM | Kd [9, 39]: 15.7 nM

LSINSSFYF
Kd ([10]; source organism: Variola virus): 2960 nM | Kd ([11]; source organism: Variola virus): 970 nM | Kd ([12]; source organism: Variola virus): 3160 nM | Kd ([13]; source organism: Variola virus): 1.02 nM | Kd ([9]; source organism: Variola virus): 4.81 nM

TTQSIHENK
IC50 ([17]; source organism: Vaccinia virus): 6040 nM

QIVAYFSEF
Kd [10, 39]: 70.4 nM | Kd [11, 39]: 12700 nM | Kd [12, 39]: 1930 nM | Kd [13, 39]: 1.38 nM | Kd [9, 39]: 7.85 nM

FSLGQGVKF
Kd ([4]; source organism: Shigella flexneri): 1.9 nM

WSIYLSLHY
Kd [10, 39]: ≥ 29000 nM | Kd [11, 39]: 17000 nM | Kd [12, 39]: 2720 nM | Kd [13, 39]: 48.2 nM | Kd [9, 39]: 8.85 nM

IFFLPQFYY
Kd ([14]; source organism: Listeria monocytogenes FSL R2-561): 1.6 nM

ISESRFQSL
Kd [10, 39]: 11100 nM | Kd [11, 39]: 5920 nM | Kd [12, 39]: 39.6 nM | Kd [13, 39]: 2890 nM | Kd [9, 39]: 147 nM

HMPAARPEL
Kd [1, 42]: 593 nM

YFNDPALGH
Kd [14, 42]: 114 nM

NTWNQITKF
Kd [3, 42]: 1110 nM | Kd [4, 42]: 76.4 nM | Kd [5, 42]: 905 nM

NLMVNEQAA
Kd [19]: ≥ 20000 nM | Kd [20]: 18.9 nM

MVKNNKIQK
Kd [10, 39]: ≥ 77800 nM | Kd [11, 39]: 11.8 nM | Kd [12, 39]: 17800 nM | Kd [13, 39]: 18300 nM | Kd [9, 39]: 9550 nM

ANNNRLPKR
IC50 [17, 39]: 11700 nM

VLFEVFVVF
Kd [10, 39]: 7.8 nM | Kd [11, 39]: ≥ 24400 nM | Kd [12, 39]: 5110 nM | Kd [13, 39]: 2.85 nM | Kd [9, 39]: 4.85 nM

VLLDSITRL
Kd [21]: 4350 nM | Kd [22]: ≤ 1 nM

WFLYVSQQI
Kd [23]: ≥ 20000 nM | Kd [24]: ≥ 20000 nM | Kd [25]: ≥ 20000 nM | Kd [26]: ≥ 20000 nM | Kd [27]: ≥ 20000 nM | Kd [28]: ≥ 20000 nM | Kd [29]: ≥ 20000 nM | Kd [30]: ≥ 20000 nM | Kd [31]: ≥ 20000 nM | Kd [32]: ≥ 20000 nM | Kd [33]: ≥ 20000 nM | Kd ([16]; source organism: Convict Creek 107 virus): ≥ 20000 nM

FKVTTRRSI
Kd [9, 39]: 4.57 nM

AAMVLLLRK
Kd ([15]; source organism: Mycobacterium tuberculosis variant bovis BCG str. Pasteur 1173P2): ≥ 20000 nM | Kd [18, 43]: ≤ 1 nM | Kd [16, 43]: 79.5 nM

CSTLPFHTW
Kd [3, 44]: 7.1 nM | Kd [4, 44]: 1.2 nM | Kd [5, 44]: 3.8 nM

ATGFPFFDR
Kd [15, 45]: 2.35 nM | Kd [18, 45]: 1.1 nM | Kd [16, 45]: ≥ 20000 nM

RREKRSVAL
Kd ([1]; source organism: Dengue virus): 842 nM | Kd ([12]; source organism: Dengue virus 2 Jamaica/1409/1983): 40.9 nM

REAPYELNI
Kd [34]: ≥ 5000 nM | Kd [35]: ≥ 5000 nM | Kd [36]: ≥ 5000 nM | Kd [37]: 62.8 nM
